Values of other authors as cited in article PMC4769028.

Target: CusA (Escherichia coli) (UniProt P38054)
Assay: ITC

UniProt P38054, sequence (P38054 whole entry): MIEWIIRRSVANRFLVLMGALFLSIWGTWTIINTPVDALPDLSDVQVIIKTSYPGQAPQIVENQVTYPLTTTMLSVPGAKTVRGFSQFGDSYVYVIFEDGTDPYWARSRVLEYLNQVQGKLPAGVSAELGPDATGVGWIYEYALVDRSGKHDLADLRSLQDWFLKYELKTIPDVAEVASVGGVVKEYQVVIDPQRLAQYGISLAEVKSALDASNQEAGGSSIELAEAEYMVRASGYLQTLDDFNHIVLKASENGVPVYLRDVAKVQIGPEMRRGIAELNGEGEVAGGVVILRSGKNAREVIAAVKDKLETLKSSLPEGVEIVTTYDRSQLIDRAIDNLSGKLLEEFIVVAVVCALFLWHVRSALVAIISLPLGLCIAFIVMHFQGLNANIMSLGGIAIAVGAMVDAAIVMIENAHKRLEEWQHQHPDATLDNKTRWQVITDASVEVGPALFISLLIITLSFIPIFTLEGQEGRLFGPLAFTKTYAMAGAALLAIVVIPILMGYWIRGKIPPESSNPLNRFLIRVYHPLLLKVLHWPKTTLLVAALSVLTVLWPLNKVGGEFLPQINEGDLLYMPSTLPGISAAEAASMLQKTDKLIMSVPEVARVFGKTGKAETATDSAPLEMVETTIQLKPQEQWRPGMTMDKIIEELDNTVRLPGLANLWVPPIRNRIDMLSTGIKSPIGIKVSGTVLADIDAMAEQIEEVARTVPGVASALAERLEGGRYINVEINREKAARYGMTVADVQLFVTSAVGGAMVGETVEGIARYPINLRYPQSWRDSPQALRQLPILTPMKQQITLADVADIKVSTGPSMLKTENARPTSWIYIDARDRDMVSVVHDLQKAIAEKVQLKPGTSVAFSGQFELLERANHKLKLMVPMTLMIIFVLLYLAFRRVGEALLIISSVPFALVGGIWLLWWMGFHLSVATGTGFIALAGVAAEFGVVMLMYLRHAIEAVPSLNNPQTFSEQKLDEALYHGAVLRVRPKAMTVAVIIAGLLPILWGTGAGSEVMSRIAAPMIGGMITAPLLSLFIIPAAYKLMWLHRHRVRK

Question: For CusB (from UniProt P77239), which Kd is on record?
Answer: The Kd was 5.1 µM.
